Six molecules from patent publication US20220324988A1 (NANKAI UNIVERSITY, published 2022) can be followed below.

Changes are numbered by the printed parent chain.

Assay [1] has as its target T1, human CD40 expressed on cells (human, UniProt P25942 21-277). Description: cell-based or functional assay.
For assay [2], the target named is T1, human CD40 expressed on cells. The assay is described as follows: flow cytometry on 293FT cells expressing human CD40. On the procedure: (§1) Cells expressing Rhesus monkey CD40 and human CD40, respectively, were obtained after 48 h of expression.
(§2) GraphPad Prism 6.0 was used to fit the curves and calculate EC50.
In general terms: A flow cytometer gives signals particle by particle.

Assay [3] concerns the target T2, Rhesus monkey CD40 expressed on 293FT cells (Rhesus monkey (Macaca mulatta), UniProt F6SNI1 21-278).
T2 construct: whole, on cells; also called Rhesus CD40
The assay is described as follows: flow cytometry on 293FT cells expressing Rhesus CD40. On the procedure: as §1, §2

Assay [4] deals with T3, human OX40 (Acrobiosystems, OX 0-H5224) (human, UniProt P43489 29-216).
T3 construct: Bought protein
T3 sequence (looked up): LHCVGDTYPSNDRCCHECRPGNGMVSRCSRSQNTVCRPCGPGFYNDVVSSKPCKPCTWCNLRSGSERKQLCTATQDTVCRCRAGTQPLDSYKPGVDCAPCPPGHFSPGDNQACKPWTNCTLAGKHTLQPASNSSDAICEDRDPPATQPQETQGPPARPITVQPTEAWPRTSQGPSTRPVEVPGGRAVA
The assay is described as follows: direct ELISA, coated human OX40 1 µg/ml, anti-human Fc-HRP. Here is the method:
(§3) PBS solutions containing 1 μg/ml of human OX40 (Acrobiosystems, OX 0-H5224), 4-1BB (Acrobiosystems, 41B-H5227), GITR (Acrobiosystems, GIR-H5228) and CD40 (Acrobiosystems, CD 0-H5228) were coated on the ELISA plates and incubated overnight at 4° C. […] After 30 mins of incubation at room temperature, washing was carried out for 8 times with 0.05% PBS-Tween.
(In general: ELISA stands for enzyme-linked immunosorbent assay.)

Assay [5] deals with T4, human 4-1BB (Acrobiosystems, 41B-H5227) (human, UniProt Q07011 24-186).
T4 construct: Bought protein
T4 sequence (Q07011 24-186): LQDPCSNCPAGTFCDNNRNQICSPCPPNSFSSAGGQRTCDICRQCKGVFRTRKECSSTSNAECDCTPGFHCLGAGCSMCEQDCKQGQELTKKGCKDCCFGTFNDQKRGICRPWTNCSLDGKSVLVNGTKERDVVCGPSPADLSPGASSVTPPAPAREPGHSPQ
Description: direct ELISA, coated human 4-1BB 1 µg/ml, anti-human Fc-HRP. Here is the method: as §3

Assay [6] addresses T5, human CD40 recombinant protein (Acrobiosystems, CD 0-H5228) (human, UniProt P25942 21-193).
T5 construct: Bought protein
The assay is described as follows: SPR (Biacore T200), antibody captured on Protein A chip, CD40 as analyte. Here is the method:
The antigen to be tested, i.e. human CD40 recombinant protein (Acrobiosystems, CD 0-H5228) was diluted gradiently with a Running buffer (HBS-EP+, GE) at concentrations of 2 μM, 1 μM, 500 nM, 250 nM, 125 nM, 62.5 nM, 31.25 nM. The above-mentioned CD40 with different concentrations was flowed through the chip on which the antibody was captured at a flow rate of 30 μL/min for 120 s of binding, and then the Running buffer was flowed through the chip at a flow rate of 30 μL/min for 240 s, with the antigen dissociating gradually from the chip on which the antibody was captured. Data processing was performed using BIAevaluation software S200, the necessary software of Biacore T200 instrument and binding constants (Ka), dissociation constants (Kd), and equilibrium dissociation constants (KD) were calculated.
In general terms: SPR reads the build-up and loss of mass on a sensor chip optically.

Assay [7] deals with T5, human CD40 recombinant protein …. The assay is described as follows: direct ELISA, coated human CD40 1 µg/ml, anti-human Fc-HRP. On the procedure:
The antibodies were incubated at room temperature for 30 min, and washed 8 times with 0.05% PBS-Tween.

T5 sequence (P25942 21-193 limits assumed): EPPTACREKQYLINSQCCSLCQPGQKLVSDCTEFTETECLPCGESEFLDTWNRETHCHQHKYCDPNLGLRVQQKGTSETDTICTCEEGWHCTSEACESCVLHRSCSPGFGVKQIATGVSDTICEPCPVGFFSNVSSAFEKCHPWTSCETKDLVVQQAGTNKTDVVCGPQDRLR
T1 sequence (P25942 21-277): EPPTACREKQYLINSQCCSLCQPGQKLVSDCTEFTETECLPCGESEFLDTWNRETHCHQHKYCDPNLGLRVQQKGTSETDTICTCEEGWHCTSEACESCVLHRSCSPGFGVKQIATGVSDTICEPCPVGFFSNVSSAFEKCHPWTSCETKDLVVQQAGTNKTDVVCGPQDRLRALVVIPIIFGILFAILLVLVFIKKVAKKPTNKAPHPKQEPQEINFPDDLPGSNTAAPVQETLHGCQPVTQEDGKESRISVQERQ

B1: NK003-AM-18 (antibody, human IgG1, kappa, V domains shown)
VH: not shown
VL: DVVMTQSPLSLPVTPGESATISCRSSQSLLYSNGYNYLDWYLLKPGQSPQLLIYLGSNRASGVPDRFSGSGSGTDFTLKISRVEAEDVGLYYCMQQLEQPYTFGQGTKLEIKR
Turning to B1, in assay [1], the “EC50 of activation of the NF-kB-GFP+hCD40 reporter cell line, cross-linked with goat anti-human Fc” value was determined as 0.3 nM and the “fold improvement of reporter cell activity against wild type NK003” value was around 10 times.

B2: NK003-AM-18-EP1 (antibody, human IgG1, kappa, V domains shown)
VH: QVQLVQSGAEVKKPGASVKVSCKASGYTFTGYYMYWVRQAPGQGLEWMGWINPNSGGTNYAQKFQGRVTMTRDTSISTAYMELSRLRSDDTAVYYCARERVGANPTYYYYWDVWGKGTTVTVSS
VL: B1 VL
On to B2, for which, in assay [1], the “EC50 of activation of the NF-κB-GFP+hCD40 reporter cell line, cross-linked with goat anti-human Fc” value turned out to be 0.35 nM.

B3: NK003-AM-9 (antibody, human IgG1, kappa, V domains shown)
VH: not shown
VL: B1 VL with Q95N, Q96G, Q99V
Consider B3, for which, in assay [1], the “EC50 of activation of the NF-kB-GFP+hCD40 reporter cell line, cross-linked with goat anti-human Fc” value came out at 0.25 nM and the “fold improvement of reporter cell activity against wild type NK003” value is around 10 times.

B4: NK003 (antibody, human IgG1, kappa, V domains shown)
VH: not shown
VL: B1 VL with Q96G, Q99T
notes: also called antibody NK003; wild type NK003
As usually defined, the EC50 is the concentration at which the effect is half-maximal. Broadly, the Kd is the free concentration of one partner at which half of the binding sites on the other are occupied at equilibrium, for simple one-to-one binding. What is called koff is a measure of how fast the partners let go of each other. One may read the kon as the rate constant with which the complex forms. B4: in assay [1], the “EC50 of activation of the NF-κB-GFP+hCD40 reporter cell line, cross-linked with goat anti-human Fc” value amounted to 2 nM; the “EC50 of apoptosis of Raji cells (CD95 expression, MFI), cross-linked with goat anti-human Fc” value was found to be 2.6 nM; the “EC50 of apoptosis of Ramos cells (CD95 expression, MFI), cross-linked with goat anti-human Fc” value came to 3 nM. In assay [2], this molecule showed a concentration giving a half-maximal response (EC50) of 10 nM. The concentration giving a half-maximal response (EC50) in assay [3] worked out at 8 nM. In addition, the binding result in assay [4] was “no binding”. Further, in assay [5], the binding result is “no binding”. Also, in assay [6], the Kd was 331 nM, the koff came out at 0.0121 s⁻¹ and the kon was 36700 M⁻¹ s⁻¹.

B5: HEL (antibody, human IgG1, kappa, V domains shown)
VH: EVQLEQSGAELMKPGASVKISCKATGYTFTTYWIEWIKQRPGHSLEWIGEILPGSDSTYYNEKVKGKVTFTADASSNTAYMQLSSLTSEDSAVYYCARGDGFYVYWGQGTTLTVSS
VL: DIELTQSPATLSVTPGDSVSLSCRASQSISNNLHWYQQKSHESPRLLIKYTSQSMSGIPSRFSGSGSGTDFTLSINSVETEDFGVYFCQQSGSWPRTFGGGTKLDIKR
notes: IgG1 negative control antibody; also called negative control HEL; HEL control antibody
Consider B5, for which the binding result in assay [7] is on record as “no binding (tested: 500 nM)”.

B6: NK004 (antibody, human IgG1, kappa, V domains shown)
VH: QVQLVESGGGLVQPGRSLRISCAGSGFTFGDSAMHWVRQAPGKGLEWVSGISRNSDTIVYADSVKGRFTISRDNAKNSLYLQMNSLRAEDTALYYCARRSGDHHAMDVWGPGTTVTVSS
VL: ETTLTQSPATLSLSPGERATLSCRASQSVNTYLAWYQQKPGQAPRLLMYDSSSRATGIPDRFSGSGSGTDFTLTISRLEPEDFAVYYCQQYSTVPLTFGGGTKLEIKR
notes: also called antibody NK004
The EC50 (read off the curve) is the concentration giving half of the maximal effect. Consider B6, for which the “EC50 of activation of the NF-κB-GFP+hCD40 reporter cell line, with the addition of the secondary antibody” value in assay [1] is 4 nM. Also, in assay [7], the “EC50 (read off the curve)” value was around 0.7 nM. Also, in assay [6], the Kd came out at 440 nM, the dissociation rate constant (koff) is 0.039 s⁻¹ and the kon worked out at 88700 M⁻¹ s⁻¹.
